Data taken from patent publication US20140249045.
Residue numbers refer to the chain shown, from its start. Names may count otherwise.

T1: RagD GTPase as used in the in vitro GTPase assay, Q9NQL2
T1 chain: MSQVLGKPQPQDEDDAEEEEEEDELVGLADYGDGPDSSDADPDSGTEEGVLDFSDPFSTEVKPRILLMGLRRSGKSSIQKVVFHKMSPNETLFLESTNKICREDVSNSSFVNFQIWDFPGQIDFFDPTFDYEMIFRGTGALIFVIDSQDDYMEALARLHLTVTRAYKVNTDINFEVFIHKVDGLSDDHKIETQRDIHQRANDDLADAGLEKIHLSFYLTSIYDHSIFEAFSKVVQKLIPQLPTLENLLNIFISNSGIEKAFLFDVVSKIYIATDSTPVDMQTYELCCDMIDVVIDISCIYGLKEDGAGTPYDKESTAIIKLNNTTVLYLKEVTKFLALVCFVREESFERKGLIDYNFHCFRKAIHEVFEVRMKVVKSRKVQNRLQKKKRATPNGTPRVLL

B1: His-LRS-(759-1176) (protein)
chain: MADAGILRLYTWVEWVKEMVANWDSLRSGPASTFNDRVFASELNAGIIKTDQNYEKMMFKEALKTGFFEFQAAKDKYRELAVEGMHRELVFRFIEVQTLLLAPFCPHLCEHIWTLLGKPDSIMNASWPVAGPVNEVLIHSSQYLMEVTHDLRLRLKNYMMPAKGKKTDKQPLQKPSHCTIYVAKNYPPWQHTTLSVLRKHFEANNGKLPDNKVIASELGSMPELKKYMKKVMPFVAMIKENLEKMGPRILDLQLEFDEKAVLMENIVYLTNSLELEHIEVKFASEAEDKIREDCCPGKPLNVFRIEPGVSVSLVNPQPSNGHFSTKIEIRQGDNCDSIIRRLMKMNRGIKDLSKVKLMRFDDPLLGPRRVPVLGKEYTEKTPISEHAVFNVDLMSKKIHLTENGIRVDIGDTIIYLVH
B2: LRS (759-1176 a.a) fragment H844A (protein)
chain: B1 chain with H86A
B3: LRS (759-1176 a.a) fragment R845A (protein)
chain: B1 chain with R87A

Biological target: T1, RagD GTPase as used in the in vitro …

Protein | GTP hydrolysis by RagD GTPase (in vitro GTPase assay) | GAP activity on RagD (in vitro GTPase assay)
B1 | addition of WT LRS fragment (759-1176 a.a) enhanced GTP hydrolysis by RagD GTPase in dose- and time-dependent manner | 
B2 |  | H844A and R845A mutants lost their GAP activity while WT LRS showed GAP activity
B3 |  | H844A and R845A mutants lost their GAP activity while WT LRS showed GAP activity
